{"source": "paper PMC4745115", "substrate": "C[N+](C)(C)CCO", "experiment": "SSM-based electrophysiology, peak currents, proteoliposomes", "type": "biochemical, Corynebacterium glutamicum", "settings": "500 mM NaCl, 250 mM KPi pH 7.5, 22 °C", "data": [{"protein": "BetP (Corynebacterium glutamicum ATCC 13032; G153D) (protein) MTTSDPNPKPIVEDAQPEQITATEELAGLLENPTNLEGKLADAEEEIILEGEDTQASLNWSVIVPALVIVLATVVWGIGFKDSFTNFASSALSAVVDNLGWAFILFGTVFVFFIVVIAASKFGTIRLGRIDEAPEFRTVSWISMMFAAGMGIDLMFYGTTEPLTFYRNGVPGHDEHNVGVAMSTTMFHWTLHPWAIYAIVGLAIAYSTFRVGRKQLLSSAFVPLIGEKGAEGWLGKLIDILAIIATVFGTACSLGLGALQIGAGLSAANIIEDPSDWTIVGIVSVLTLAFIFSAISGVGKGIQYLSNANMVLAALLAIFVFVVGPTVSILNLLPGSIGNYLSNFFQMAGRTAMSADGTAGEWLGSWTIFYWAWWISWSPFVGMFLARISRGRSIREFILGVLLVPAGVSTVWFSIFGGTAIVFEQNGESIWGDGAAEEQLFGLLHALPGGQIMGIIAMILLGTFFITSADSASTVMGTMSQHGQLEANKWVTAAWGVATAAIGLTLLLSGGDNALSNLQNVTIVAATPFLFVVIGLMFALVKDLSNDVIYLEYREQQRFNARLARERRVHNEHRKRELAAKRRRERKASGAGKRR", "values": [{"measurement": "Km", "result": "135 ± 28", "unit": "µM"}]}]}
